{"source": "paper PMC3227427", "binders": {"B1": {"name": "Pyrococcus furiosus (Pfu) RNase P protein Pop5, Cys72Ser variant (natural protein)", "chain": "MSERPKTLPPTLRDKKRYIAFKVISENQFNKDEIKEAIWNACLRTLGELGTAKAKPWLIKFDETTQTGIIRSDRNHVYDVIFSLTLVSDINGNKAIIKVLGVSGTIKRLKRKFLSQFGWR"}}, "key": {"[1]": {"target": "T1, Pyrococcus furiosus (Pfu) RNase P protein RPP30 (Pyrococcus furiosus)", "T1 sequence (Q8TZS0 1-214, looked up)": "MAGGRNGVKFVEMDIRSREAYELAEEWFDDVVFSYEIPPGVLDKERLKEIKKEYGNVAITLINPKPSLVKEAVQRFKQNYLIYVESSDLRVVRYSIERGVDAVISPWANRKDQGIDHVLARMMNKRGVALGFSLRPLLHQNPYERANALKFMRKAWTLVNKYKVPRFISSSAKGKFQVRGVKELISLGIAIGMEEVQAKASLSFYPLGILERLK", "assay": "ITC; Pop5 (148 uM) titrated into RPP30 (14.8 uM); 55°C; no salt or 150 mM NaCl; smaller injections, higher Wiseman c value; two-site model"}, "[2]": {"target": "T1, Pyrococcus furiosus (Pfu) RNase P protein RPP30 (Pyrococcus furiosus)", "assay": "ITC; Pop5 (87.2 uM) titrated into RPP30 (9.89 uM); 55°C; 10 mM sodium acetate pH 5, no salt; one-site model; apparent"}, "[3]": {"target": "T1, Pyrococcus furiosus (Pfu) RNase P protein RPP30 (Pyrococcus furiosus)", "assay": "ITC; Pop5 (87.2 uM) titrated into RPP30 (4.95 uM); 55°C; 10 mM sodium acetate pH 5 with 130 mM KCl; one-site model; apparent"}}}
{"binder": "B1", "values": [{"measurement": "stoichiometry N", "setting": "[1]", "value": 1}, {"measurement": "Kd", "setting": "[2]", "value": 124, "unit": "nM"}, {"measurement": "stoichiometry N", "setting": "[2]", "value": 1}, {"measurement": "Kd", "setting": "[3]", "value": 3.5, "unit": "nM"}, {"measurement": "stoichiometry N", "setting": "[3]", "value": 1}]}
